The text below walks through data of PMC8862428, “Modeling the stimulation by glutathione of the steady state kinetics of an adenosine triphosphate binding cassette transporter” (Protein Science : A Publication of the Protein Society, 2021).

Substrate in this data set: Nc1ncnc2c1ncn2[C@@H]1O[C@H](COP(=O)(O)OP(=O)(O)OP(=O)(O)O)[C@@H](O)[C@H]1O
Description: molybdate phosphate-release ATPase assay, global fit to nonessential activator model. The format is biochemical, Novosphingobium aromaticivorans. Particulars: nanodiscs (MSP1D1/POPC), basal ATPase, constant for transporter without GSSG, Mg complex of ATP, 100 mM NaCl, 20 mM Tris pH 7.5, 37 °C. The text has this:
molybdate phosphate-release ATPase assay, global fit to nonessential activator model on NaAtm1

B1: NaAtm1 (Novosphingobium aromaticivorans DSM 12444) (protein)
chain: MPPETATNPKDARHDGWQTLKRFLPYLWPADNAVLRRRVVGAILMVLLGKATTLALPFAYKKAVDAMTLGGGAQPALTVALAFVLAYALGRFSGVLFDNLRNIVFERVGQDATRHLAENVFARLHKLSLRFHLARRTGEVTKVIERGTKSIDTMLYFLLFNIAPTVIELTAVIVIFWLNFGLGLVTATILAVIAYVWTTRTITEWRTHLREKMNRLDGQALARAVDSLLNYETVKYFGAESREEARYASAARAYADAAVKSENSLGLLNIAQALIVNLLMAGAMAWTVYGWSQGKLTVGDLVFVNTYLTQLFRPLDMLGMVYRTIRQGLIDMAEMFRLIDTHIEVADVPNAPALVVNRPSVTFDNVVFGYDRDREILHGLSFEVAAGSRVAIVGPSGAGKSTIARLLFRFYDPWEGRILIDGQDIAHVTQTSLRAALGIVPQDSVLFNDTIGYNIAYGRDGASRAEVDAAAKGAAIADFIARLPQGYDTEVGERGLKLSGGEKQRVAIARTLVKNPPILLFDEATSALDTRTEQDILSTMRAVASHRTTISIAHRLSTIADSDTILVLDQGRLAEQGSHLDLLRRDGLYAEMWARQAAESAEVSEAAE
notes: His-tag (NiNTA) purified from E. coli BL21-gold (DE3); 135 kDa transporter (homodimer); in DDM/C12E8 detergent, MSP1D1/POPC nanodiscs or proteoliposomes
For the protein B1, the Km was determined as 1410 ± 80 µM and the turnover number (kcat) is 0.531 ± 0.0173 s⁻¹.

By Km is commonly meant the substrate concentration at which the rate is half of its maximum. The term kcat denotes the number of substrate molecules converted per active site and unit of time at saturation.
